Data reported in the supplement of paper PMC12042874.
± gives the uncertainty stated by the source.

Assay: amyloid nucleation score (Sup35N fusion, yeast selection) (log enrichment); library NNK3; higher = more nucleation; inactive = no reads after selection
Summary of the method: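 Libraries of peptides of 20 random codons fused to Sup35N were expressed in psi-negative yeast and induced 24 hours with 100 μM copper sulfate. Selection was 7 days at 30°C on medium lacking adenine and uracil, and plasmid inserts were Illumina-sequenced before and after selection. Nucleation score is the DiMSum log enrichment of output over input reads, centred on the mode score of non-aggregating sequences, and sequences with under 100 input reads were left out.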
For FKFVQDAHQNLGVIRSYRRS, the amyloid nucleation score was “inactive”. In the case of NIKGFRVDKYVETL, the amyloid nucleation score is reported as “inactive”. Work on LLGVWG yielded an amyloid nucleation score of 0.217 ± 0.53. For IAYDWCQVSVTNFMSRSLMH, the amyloid nucleation score was -0.04 ± 0.75. FFPKWFCMTLLINDVGNHDM showed an amyloid nucleation score of 0.921 ± 0.25. Substance LWINCSWMFNWM has an amyloid nucleation score of 2.43 ± 0.07. With IRAYTDNDSNLSEFGVFTLV the amyloid nucleation score was “inactive”. In the case of YLWARNGDLLLSCCSLNSCM, the amyloid nucleation score is reported as 2.52 ± 0.061. In the case of YKQHYRRSRHCIKHYVGGSE, the amyloid nucleation score is reported as “inactive”. Substance SVGRYA has an amyloid nucleation score of -0.306 ± 0.41. In the case of VMYWLYRINDSSQSFFSYFS, the amyloid nucleation score is reported as “inactive”. In the case of IMMIDWWYMFGCYACLETCH, the amyloid nucleation score is reported as “inactive”. For CTITNWHNKYC, the amyloid nucleation score was “inactive”. In the case of LMILLGSKFRNANGTTSMLK, the amyloid nucleation score is reported as “inactive”. CVFLCDDWFGFCNLNRRFKG showed an amyloid nucleation score of 2.82 ± 0.074. For INVVSEFGFGLQSTFRSDLV, the amyloid nucleation score was “inactive”. For IRHVHLSRYSTRTDGNNQLD, the amyloid nucleation score was “inactive”. With HSLTGSHSFVGF the amyloid nucleation score was “inactive”. For INTGQMQSAYETNLVMRKLA, the amyloid nucleation score was “inactive”. For ERFRGMDRHVGVVWYDFV, the amyloid nucleation score was “inactive”. In the case of TNLVAIKYLFT, the amyloid nucleation score is reported as -0.022 ± 0.48. Work on VRARFHDGQF yielded an amyloid nucleation score of -1.05 ± 2.4. For VNFVSFRP, the amyloid nucleation score was “inactive”. With CLFSLPWWCSMM the amyloid nucleation score was “inactive”. PRVIHWSLALNSSHCNFVFF showed an amyloid nucleation score of 2.67 ± 0.073. In the case of MGSGIFCDLFHGVMYCMQVR, the amyloid nucleation score is reported as “inactive”. For HVFLLHVMAFYFDLSCFG, the amyloid nucleation score was “inactive”. In the case of MPWGTWGAS, the amyloid nucleation score is reported as “inactive”. GNLWT gave an amyloid nucleation score of 0.637 ± 0.12. SYCATCHIPRENMSLQCVME showed an amyloid nucleation score of 1.3 ± 0.1. In the case of TLARQWSDP, the amyloid nucleation score is reported as “inactive”. QYICTLTCSYFLGSMTIEHK gave an amyloid nucleation score of -0.022 ± 0.66. For LVRHARNKDNLFGN, the amyloid nucleation score was “inactive”. TLNIFVVSFNDYWVSVIIKD gave an amyloid nucleation score of 2.46 ± 0.066. In the case of RDYAFNPMFCCATNAKFMKG, the amyloid nucleation score is reported as 1.96 ± 0.06. In the case of RLRGVGIIVGGASQSSSQLR, the amyloid nucleation score is reported as “inactive”. IFYVGNTLIFFIYMNWNRTY gave an amyloid nucleation score of 0.679 ± 0.24. In the case of CYRSISRRDPS, the amyloid nucleation score is reported as “inactive”. In the case of REAASQIHSEDKMGGWYHRL, the amyloid nucleation score is reported as “inactive”. With NMNCCLKMSVYLYRLLVHM the amyloid nucleation score was “inactive”. With IVYFPLILGAIIYWMSETHL the amyloid nucleation score was “inactive”. With SSTGSLIPQPAFSYFCTATP the amyloid nucleation score was “inactive”. For VVDIKNLYTCLTFCHKYGLN, the amyloid nucleation score was 0.988 ± 0.12. For GCFSV, the amyloid nucleation score was “inactive”. In the case of VCWSHNPRPTDDY, the amyloid nucleation score is reported as “inactive”. For LKCDLMWLMLDNYTAVDSFR, the amyloid nucleation score was “inactive”. With SRPILLLSFCFRCAIC the amyloid nucleation score was “inactive”. In the case of FAEYISQ, the amyloid nucleation score is reported as 0.293 ± 0.23. With WQICSGA the amyloid nucleation score was “inactive”. With TSRYIGL the amyloid nucleation score was “inactive”. In the case of FSYVCFGYV, the amyloid nucleation score is reported as 0.337 ± 0.14. For ALNLVLLLCVTRRSRLSQSS, the amyloid nucleation score was “inactive”. For SVYGACSRFPTNVVYNRSEY, the amyloid nucleation score was “inactive”. In the case of ELNTFKSTQIHWGIGDSSQE, the amyloid nucleation score is reported as 0.34 ± 0.31. With DKHMIGLYNPRASIELL the amyloid nucleation score was “inactive”. For NFLLDSLSSETGFRCY, the amyloid nucleation score was -0.607 ± 1. With DATSNC the amyloid nucleation score was -0.232 ± 0.73. For YTPGLPSDFN, the amyloid nucleation score was “inactive”. With SKCVGFIMNFLISSDNEDSN the amyloid nucleation score was 2.27 ± 0.053. For RKDLCDFSYLHGDPGAKPEL, the amyloid nucleation score was “inactive”. With RPCNVMEKRDSTNIVTRFT the amyloid nucleation score was “inactive”. With VSKESILGGRCVM the amyloid nucleation score was “inactive”. In the case of SVSARSRRLWGSMRIAVTVF, the amyloid nucleation score is reported as “inactive”. With NLGGAPVL the amyloid nucleation score was “inactive”. With LHPLYRFSANSSKDLFTSRL the amyloid nucleation score was “inactive”. In the case of PKCPCTWSRTYCVVLWLPRR, the amyloid nucleation score is reported as “inactive”. With LHCPISYLAMSKKS the amyloid nucleation score was “inactive”. For DFGCKSINCFLNATQ, the amyloid nucleation score was “inactive”. With IFHRD the amyloid nucleation score was “inactive”. For IRTIIQKKMWACDHVFGSPA, the amyloid nucleation score was “inactive”. With DTWRMFWPLVVLNCADGAPG the amyloid nucleation score was “inactive”. Substance LVGNHVSVAIISLVPLSFPH has an amyloid nucleation score of 2.06 ± 0.067. With MDVVLRINLKQGRYPGTNAH the amyloid nucleation score was 2.1 ± 0.091. In the case of RLSWSQPVLNVSTCEGVN, the amyloid nucleation score is reported as “inactive”. For SVGHSFERKWSGCHWEISNL, the amyloid nucleation score was “inactive”. With MDLMPSYSTWKLFFKAI the amyloid nucleation score was “inactive”. For SYLCVATWSCPHYVGFSQHI, the amyloid nucleation score was “inactive”. PGHFLECRKW showed an amyloid nucleation score of -0.096 ± 0.66. In the case of YSVNMLFAAS, the amyloid nucleation score is reported as “inactive”. With LKKVLPYGVRWTDITGPWVS the amyloid nucleation score was “inactive”. With FDNVISILPPYFTSFSG the amyloid nucleation score was “inactive”. For QWFVRNFLFNPNALRYFRSS, the amyloid nucleation score was “inactive”. In the case of NSNFFL, the amyloid nucleation score is reported as “inactive”. In the case of MRYLDLYGRARNVRIRVRRT, the amyloid nucleation score is reported as “inactive”. With YIGTYLLMSYGDSRPRKEMR the amyloid nucleation score was 1.47 ± 0.088. SQSFYLFLGQRSRTY gave an amyloid nucleation score of 1.33 ± 0.11. In the case of TFYVLGLDYTWLSATSGDGS, the amyloid nucleation score is reported as “inactive”. For WLHRTKLWPYFYVKLFPRDK, the amyloid nucleation score was “inactive”. With SLCDSVGSKSVF the amyloid nucleation score was “inactive”. In the case of TFLYFNVLRIHFVASS, the amyloid nucleation score is reported as “inactive”. In the case of CIGWRIM, the amyloid nucleation score is reported as “inactive”. In the case of FASIRSRTRDRVSYVTPSFL, the amyloid nucleation score is reported as “inactive”. For HWESGGKIWNKEYLAGLLPR, the amyloid nucleation score was “inactive”. For AFIFGCHNGTFKYGKYTCRG, the amyloid nucleation score was “inactive”. With FTSEAPIKVQHWVYTSLPSV the amyloid nucleation score was “inactive”. In the case of ELRQMTRVSVLASYTWSTTL, the amyloid nucleation score is reported as -0.014 ± 0.46. In the case of KSFSHGLFDLRGKRTVEICL, the amyloid nucleation score is reported as “inactive”. FWRSGNFYVNTVVLCASSRE showed an amyloid nucleation score of 2.03 ± 0.099. In the case of VRPFPFTWSSSNKEV, the amyloid nucleation score is reported as “inactive”. For LLMLTEQ, the amyloid nucleation score was “inactive”. Substance DLPKVHGKFFYSLPMVVNTN has an amyloid nucleation score of -0.162 ± 0.98. With GDMFGQPCRTCMFDLLKPVS the amyloid nucleation score was “inactive”. For LALLTAADARD, the amyloid nucleation score was “inactive”. With LLWLLIWEFHT the amyloid nucleation score was “inactive”. With WIFRFAYVVHDAWFSENRYP the amyloid nucleation score was “inactive”. For ACAFS, the amyloid nucleation score was “inactive”. For CFPTTSK, the amyloid nucleation score was “inactive”. For SRILRLRVSSSHVERYFKLF, the amyloid nucleation score was “inactive”. In the case of NAHPWGYWSIVMRNIKVVVL, the amyloid nucleation score is reported as “inactive”. For RMNNLSGEQKQLCDLSLAVR, the amyloid nucleation score was “inactive”. With RRNMWG the amyloid nucleation score was “inactive”. With KVLASCLSHFVDPNLEVSFH the amyloid nucleation score was “inactive”. In the case of GGHVSRRLHF, the amyloid nucleation score is reported as “inactive”. AYMYSTILGSMPS gave an amyloid nucleation score of 1.44 ± 0.11. KQSLSMVWRKSDLALKVMVG gave an amyloid nucleation score of 0.904 ± 0.15. NGSYIFPSNCYSKIAIVMVG gave an amyloid nucleation score of 0.706 ± 0.26. In the case of SGSKKCAFRHVRIHFRLTAG, the amyloid nucleation score is reported as “inactive”. For VVWLSNSEWLRYLKDG, the amyloid nucleation score was “inactive”. In the case of TRVTS, the amyloid nucleation score is reported as “inactive”. For ISVYHVLTHKL, the amyloid nucleation score was 1.49 ± 0.12. For SWVRMYIGEFLVSRCQMWST, the amyloid nucleation score was “inactive”. For VDVSRTFALCHRDLPMMP, the amyloid nucleation score was “inactive”. With NISLLWDGAFCIYVCLLWRG the amyloid nucleation score was -0.438 ± 0.9. For IYLKYSSYRNSLIILAVD, the amyloid nucleation score was “inactive”. In the case of MDKYTRTRPQTRGRAVSCYY, the amyloid nucleation score is reported as “inactive”. With ISTDSVIHTTMEHSGE the amyloid nucleation score was “inactive”. In the case of RKGTWPHLGTVNRRVQRWVY, the amyloid nucleation score is reported as “inactive”. In the case of QGSRLNGIKSPLCIGLKCSR, the amyloid nucleation score is reported as “inactive”. For NSYFGMWVITGFFLASMCIR, the amyloid nucleation score was “inactive”. In the case of MTYCRVFRNRASDKPYMMRL, the amyloid nucleation score is reported as “inactive”. For SGFDGTPFVLLSSDMFSNIG, the amyloid nucleation score was “inactive”. Work on CSEVFTSNWAYETASNCKRV yielded an amyloid nucleation score of 1.08 ± 0.12. For RPFLSMS, the amyloid nucleation score was “inactive”. Work on NFLRAKDLEYRTV yielded an amyloid nucleation score of -0.761 ± 1.1. With YSSQLILTYDTRL the amyloid nucleation score was “inactive”. With NNSTRLIWWCMVKMRYNHCE the amyloid nucleation score was “inactive”. In the case of TRSWCGDMYSHC, the amyloid nucleation score is reported as “inactive”. RYNPFRIQELSMLFVLERTL gave an amyloid nucleation score of 0.014 ± 0.71. With TYPSEVYFIMFAMFSSTCWS the amyloid nucleation score was “inactive”. For EMSAMRCILLMRVDPICSLS, the amyloid nucleation score was “inactive”. For ATGVMLNDDS, the amyloid nucleation score was “inactive”. For KLHPTYLCNQNPRELWLITY, the amyloid nucleation score was “inactive”. For NVNEQSHPM, the amyloid nucleation score was “inactive”. In the case of NINRFLDLSSWIGYQNGYKA, the amyloid nucleation score is reported as “inactive”. For INCLRSLTNCINSCRPIIVL, the amyloid nucleation score was “inactive”. In the case of RMYPHE, the amyloid nucleation score is reported as “inactive”. For SRFLSIRELRFWYSMNRWGI, the amyloid nucleation score was “inactive”. With KCAQEYGEVLS the amyloid nucleation score was -0.591 ± 0.8. With GVAPYFQCVLIEEERVEGQG the amyloid nucleation score was “inactive”. With HAVYL the amyloid nucleation score was “inactive”. In the case of GSFNFCSNAARFQ, the amyloid nucleation score is reported as “inactive”. In the case of YCCIFRRFNGKNFFSCRG, the amyloid nucleation score is reported as “inactive”. For YSRMCLVY, the amyloid nucleation score was “inactive”. In the case of CTFDSSSNYADSAKLIG, the amyloid nucleation score is reported as “inactive”. Work on FRHPIYCLDLSFSYRMKARG yielded an amyloid nucleation score of 0.052 ± 0.28. With GSDFTESCVDFFLVVNVDAV the amyloid nucleation score was “inactive”. Substance CWFFV has an amyloid nucleation score of 0.242 ± 0.39. For IEDEFEAMSHCLECRNFRKL, the amyloid nucleation score was “inactive”. For TLCSHYYVV, the amyloid nucleation score was “inactive”. In the case of LTRLSRNHVVRWRYIREGGW, the amyloid nucleation score is reported as “inactive”. For ICQQCWTVT, the amyloid nucleation score was “inactive”. Substance YCVQYVNDRQL has an amyloid nucleation score of 1.85 ± 0.082.
